We go through 94 variants from the supplement of paper PMC10567573.

The chains are these.
B1: UBE2R2 (parent)
chain: DPQSGELPSERWNPTQNVRTILLS
B2: ADAMTS4 (parent)
chain: SFRKFRYGYNNVVTIPAGATHILV
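Also: lentivirally expressed fusions sorted by FACS into six bins by GFP to DsRed ratio, PSI derived from sequencing read proportions per bin multiplied by bin number.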

The first data set covers variants of B1. The data set is described as follows: protein stability index of a GFP-peptide fusion (GPS, HEK-293T) (PSI 1-6); higher = more stable. The conditions noted are these: c terminus: a fixed tail appended.
Take DPQSGELPSERWNPTQNVRTILLP [S24P]: the protein stability index was found to be 3.95. On the same count and under the same terms, with DPQSGELPSERWNPTQNVRTILLA [S24A] the figure was 2.82; with DPQSGELPSERWNPTQNVRTILLM [S24M], 2.23.

On to DPQSGELPSERWNPTQNVRTILLK [S24K], for which the protein stability index is 4.34. Still for that read-out and setting: with DPQSGELPSERWNPTQNVRTILLV [S24V] the figure was 2.81; with DPQSGELPSERWNPTQNVRTILLY [S24Y], 2.04. For the variant DPQSGELPSERWNPTQNVRTILLF [S24F], the protein stability index was determined as 1.82. As for DPQSGELPSERWNPTQNVRTILLC [S24C], the protein stability index turned out to be 2.35. Regarding DPQSGELPSERWNPTQNVRTILLW [S24W], the protein stability index came to 1.61. The same measure, in the same setting: then DPQSGELPSERWNPTQNVRTILLT [S24T], with 3.14.

As for DPQSGELPSERWNPTQNVRTILLN [S24N], the protein stability index was 3.86. Turning to DPQSGELPSERWNPTQNVRTILLE [S24E], the protein stability index came out at 4.23.

In the case of DPQSGELPSERWNPTQNVRTILLD [S24D], the protein stability index turned out to be 4.43. Turning to DPQSGELPSERWNPTQNVRTILLL [S24L], the protein stability index came out at 1.56. Same read-out and setting: then DPQSGELPSERWNPTQNVRTILLH [S24H], with 3.58; and DPQSGELPSERWNPTQNVRTILLI [S24I], with 1.84; and DPQSGELPSERWNPTQNVRTILLR [S24R], with 3.16. As for DPQSGELPSERWNPTQNVRTILLG [S24G], the protein stability index is 3.4. Consider DPQSGELPSERWNPTQNVRTILLQ [S24Q], for which the protein stability index is 4.07. For DPQSGELPSERWNPTQNVRTILES [L23E], the protein stability index was 4.47. As to DPQSGELPSERWNPTQNVRTILFS [L23F], the protein stability index was found to be 3.44. Regarding DPQSGELPSERWNPTQNVRTILMS [L23M], the protein stability index amounted to 3.7. On the same count and under the same terms, then DPQSGELPSERWNPTQNVRTILKS [L23K], with 4.74; and DPQSGELPSERWNPTQNVRTILTS [L23T], with 4.12; and DPQSGELPSERWNPTQNVRTILIS [L23I], with 3.17.

For DPQSGELPSERWNPTQNVRTILRS [L23R], the protein stability index came to 4.5. Take DPQSGELPSERWNPTQNVRTILYS [L23Y]: the protein stability index worked out at 3.22. Still for that read-out and setting: with DPQSGELPSERWNPTQNVRTILPS [L23P] the figure was 4.34. Regarding DPQSGELPSERWNPTQNVRTILDS [L23D], the protein stability index was found to be 4.91.

DPQSGELPSERWNPTQNVRTILHS [L23H]: the protein stability index is 4.09.

As for DPQSGELPSERWNPTQNVRTILQS [L23Q], the protein stability index came to 4.65.

As to DPQSGELPSERWNPTQNVRTILCS [L23C], the protein stability index was 4.63. With DPQSGELPSERWNPTQNVRTILVS [L23V], the protein stability index turned out to be 3.34. Consider DPQSGELPSERWNPTQNVRTILSS [L23S], for which the protein stability index turned out to be 4.08. The same measure, in the same setting: then DPQSGELPSERWNPTQNVRTILNS [L23N], with 4.87. Consider DPQSGELPSERWNPTQNVRTILWS [L23W], for which the protein stability index was 3.79. Turning to DPQSGELPSERWNPTQNVRTILAS [L23A], the protein stability index was found to be 4.23.

Consider DPQSGELPSERWNPTQNVRTILGS [L23G], for which the protein stability index worked out at 3.77.

Take DPQSGELPSERWNPTQNVRTIYLS [L22Y]: the protein stability index is 2.89.

The variants in another data set derive from B2. Described as above. The conditions noted are these: c terminus: a fixed tail appended.
For SFRKFRYWYNNVVTIPAGATHILV [G8W], the protein stability index was 3.33. As for SFRKFRYKYNNVVTIPAGATHILV [G8K], the protein stability index is 2.4. Regarding SFRKFRYAYNNVVTIPAGATHILV [G8A], the protein stability index is 2.21. As to SFRKFRYNYNNVVTIPAGATHILV [G8N], the protein stability index stood at 3.3. In the case of SFRKFRYFYNNVVTIPAGATHILV [G8F], the protein stability index amounted to 2.48. Turning to SFRKFRYCYNNVVTIPAGATHILV [G8C], the protein stability index worked out at 2.46. For the variant SFRKFRYQYNNVVTIPAGATHILV [G8Q], the protein stability index came out at 2.77.

With SFRKFRYHYNNVVTIPAGATHILV [G8H], the protein stability index stood at 3.15. SFRKFRYSYNNVVTIPAGATHILV [G8S]: the protein stability index stood at 3.58. SFRKFRYIYNNVVTIPAGATHILV [G8I]: the protein stability index is 4.84. Take SFRKFRYLYNNVVTIPAGATHILV [G8L]: the protein stability index was determined as 2.38. In the case of SFRKFRYRYNNVVTIPAGATHILV [G8R], the protein stability index stood at 2.96. Consider SFRKFRYYYNNVVTIPAGATHILV [G8Y], for which the protein stability index was determined as 1.51. Regarding SFRKFRYTYNNVVTIPAGATHILV [G8T], the protein stability index stood at 2.71.

SFRKFRYDYNNVVTIPAGATHILV [G8D]: the protein stability index amounted to 2.5. Take SFRKFRYMYNNVVTIPAGATHILV [G8M]: the protein stability index turned out to be 2.79.

SFRKFRYEYNNVVTIPAGATHILV [G8E]: the protein stability index was 2.1. Regarding SFRKFRYVYNNVVTIPAGATHILV [G8V], the protein stability index stood at 2.24.

With SFRKFRYPYNNVVTIPAGATHILV [G8P], the protein stability index was 2.38. Regarding SFRKFFYGYNNVVTIPAGATHILV [R6F], the protein stability index is 3.68.

In the case of SFRKFAYGYNNVVTIPAGATHILV [R6A], the protein stability index turned out to be 1.91. On to SFRKFLYGYNNVVTIPAGATHILV [R6L], for which the protein stability index was determined as 3.25. With SFRKFHYGYNNVVTIPAGATHILV [R6H], the protein stability index is 2.76. With SFRKFMYGYNNVVTIPAGATHILV [R6M], the protein stability index turned out to be 3.49. Take SFRKFYYGYNNVVTIPAGATHILV [R6Y]: the protein stability index turned out to be 2.15. As for SFRKFVYGYNNVVTIPAGATHILV [R6V], the protein stability index was found to be 2.5. In the case of SFRKFGYGYNNVVTIPAGATHILV [R6G], the protein stability index amounted to 2.57. Turning to SFRKFDYGYNNVVTIPAGATHILV [R6D], the protein stability index turned out to be 2.22.

On to SFRKFPYGYNNVVTIPAGATHILV [R6P], for which the protein stability index is 3.56. Consider SFRKFNYGYNNVVTIPAGATHILV [R6N], for which the protein stability index worked out at 2.5. With SFRKFWYGYNNVVTIPAGATHILV [R6W], the protein stability index came out at 2.86. Take SFRKFCYGYNNVVTIPAGATHILV [R6C]: the protein stability index turned out to be 4.22. On the same count and under the same terms, with SFRKFQYGYNNVVTIPAGATHILV [R6Q] the figure was 3.44; with SFRKFSYGYNNVVTIPAGATHILV [R6S], 2.95.

On to SFRKFTYGYNNVVTIPAGATHILV [R6T], for which the protein stability index stood at 2.37. For the variant SFRKFKYGYNNVVTIPAGATHILV [R6K], the protein stability index amounted to 3.

As to SFRKFIYGYNNVVTIPAGATHILV [R6I], the protein stability index turned out to be 2.3.

Take SFRKERYGYNNVVTIPAGATHILV [F5E]: the protein stability index came to 2.51. On the same count and under the same terms, then SFRKVRYGYNNVVTIPAGATHILV [F5V], with 3.85; and SFRKTRYGYNNVVTIPAGATHILV [F5T], with 2.98. SFRKPRYGYNNVVTIPAGATHILV [F5P]: the protein stability index amounted to 1.88. For the variant SFRKNRYGYNNVVTIPAGATHILV [F5N], the protein stability index turned out to be 1.84. Take SFRKQRYGYNNVVTIPAGATHILV [F5Q]: the protein stability index stood at 1.92. On the same count and under the same terms, then SFRKKRYGYNNVVTIPAGATHILV [F5K], with 1.77. As for SFRKRRYGYNNVVTIPAGATHILV [F5R], the protein stability index is 3.02.

In the case of SFRKWRYGYNNVVTIPAGATHILV [F5W], the protein stability index worked out at 2.87. Take SFRKYRYGYNNVVTIPAGATHILV [F5Y]: the protein stability index was determined as 1.98. Turning to SFRKMRYGYNNVVTIPAGATHILV [F5M], the protein stability index was found to be 3.23. Same read-out and setting: with SFRKHRYGYNNVVTIPAGATHILV [F5H] the figure was 1.66. As to SFRKDRYGYNNVVTIPAGATHILV [F5D], the protein stability index came out at 2.21. With SFRKLRYGYNNVVTIPAGATHILV [F5L], the protein stability index was determined as 2.78.

Take SFRKSRYGYNNVVTIPAGATHILV [F5S]: the protein stability index was found to be 1.87.

With SFRKGRYGYNNVVTIPAGATHILV [F5G], the protein stability index stood at 2.3. For SFRKARYGYNNVVTIPAGATHILV [F5A], the protein stability index stood at 2.44. Regarding SQRKFRYGYNNVVTIPAGATHILV [F2Q], the protein stability index is 2.91.
